Results on 26 molecules are retold here after US20210338833A1 (MIT, published 2021).

The Kd is the equilibrium constant for the complex coming apart. Low readings indicate higher affinity, high ones lower affinity.

The target in assay [1] is T1, FMC63 IgG.
T1 construct: Murine monoclonal antibody to human CD19; also called FMC63 IgG antibody; biotinylated FMC63 IgG
The assay is described as follows: yeast display FACS selection with biotinylated FMC63 IgG, first sort. The text has this: As in Example 1, a yeast library was generated using nested PCR and the primers in Table 3.

Assay [2] addresses T2, FMC63 scFv (biotinylated).
T2 construct: Whole scFv entry (VL-(G4S)3-VH); also called FMC63-scFv monomer; biotinylated FMC63 scFv
The assay is described as follows: flow cytometry (MFI) of yeast clone with biotinylated FMC63 scFv and streptavidin-PE. For orientation: In flow cytometry, cells or beads pass a laser one at a time.

The target of assay [3] is T1, FMC63 IgG. Put plainly: yeast-display FACS (MFI) titration with biotinylated FMC63 IgG, 0.01-1000 nM.
The target of assay [4] is T2, FMC63 scFv. The assay is described as follows: yeast-display FACS titration with biotinylated FMC63 scFv.
Assay [5] has as its target T1, FMC63 IgG. Put plainly: flow cytometry of yeast-displayed mutant with 5 µM FMC63 IgG. The procedure: Specifically, a representative mimotope, […] […] To generate mutations, two complementary oligos with the codon replaced at the desired site were denatured at 95° C. and annealed by slow cooling to 25° C. (decreasing by 0.5° C./second). The annealed oligos were treated with T4 PNK (T4 Polynucleotide Kinase) to add a terminal phosphate, and then ligated into digested pCT-CON2 vector. Positive clones having the correct oligo inserted were tested and transformed into competent EBY100 yeast cells.

T1 sequence (VH, as listed by the source, chain 1 of 2): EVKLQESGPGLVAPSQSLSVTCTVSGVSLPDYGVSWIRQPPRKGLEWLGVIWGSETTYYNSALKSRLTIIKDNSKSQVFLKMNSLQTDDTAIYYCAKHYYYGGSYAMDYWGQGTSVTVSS
T1 sequence (VL, as listed by the source, chain 2 of 2): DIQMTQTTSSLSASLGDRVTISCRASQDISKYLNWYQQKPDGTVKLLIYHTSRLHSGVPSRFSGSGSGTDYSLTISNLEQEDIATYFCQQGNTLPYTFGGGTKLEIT
T2 sequence (scFv, as listed by the source): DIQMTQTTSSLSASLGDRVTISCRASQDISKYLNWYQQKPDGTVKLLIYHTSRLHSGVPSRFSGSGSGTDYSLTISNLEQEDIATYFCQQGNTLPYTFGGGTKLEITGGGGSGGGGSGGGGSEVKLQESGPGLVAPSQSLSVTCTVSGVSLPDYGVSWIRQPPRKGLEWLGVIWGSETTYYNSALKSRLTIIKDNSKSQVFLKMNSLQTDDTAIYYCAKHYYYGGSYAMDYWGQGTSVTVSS

For the molecule RLCPWDCLIL [FMC63 Mimotope RLCPWDCLIL], the binding result with FMC63 IgG [1] was “binds”.

Turning to RLCPWNCIHW [FMC63 Mimotope RLCPWNCIHW], the binding result with FMC63 IgG [1] was “binds”.

In the case of RICPWACLSL [FMC63 Mimotope RICPWACLSL], in the assay with FMC63 IgG [1], the binding result is reported as “binds”.

As to AGTRICPWNCKELYWLPDE [FMC63 mimotope K-D11 AGTRICPWNCKELYWLPDE], the affinity with FMC63 scFv [2], expressed as Kd, was 15.9 nM.

RLCPWECRVL [FMC63 Mimotope RLCPWECRVL]: the binding result with FMC63 IgG [1] is recorded as “binds”.

As to RICPWNCKELPTPYMMFDM [FMC63 mimotope K-A3 RICPWNCKELPTPYMMFDM], binding with FMC63 scFv [2] was put at a Kd of 22.1 nM.

B1: FMC63 Mimotope (H1) RVCPWSCMPI (peptide)
peptide: RVCPWSCMPI
notes: Not the 1D3 mimotope that is also called H1
Regarding B1, the equilibrium dissociation constant (Kd) came to 199 nM with FMC63 IgG [3] and 178 nM with FMC63 scFv [4].

As for RVCPWSCVEQ [FMC63 Mimotope RVCPWSCVEQ], the binding result in the assay with FMC63 IgG [1] is recorded as “binds”.

For the molecule RLCPWSCVPI [FMC63 Mimotope (E6) RLCPWSCVPI], the values for the Kd with FMC63 IgG [3] and with FMC63 scFv [4] were 102 nM and 126 nM, respectively.

For QFQRICPWNCKELYWLPDQ [FMC63 mimotope K-F5 QFQRICPWNCKELYWLPDQ], binding with FMC63 scFv [2] was put at a Kd of 13.2 nM.

As for RICPWNCSKL [FMC63 Mimotope RICPWNCSKL], in the assay with FMC63 IgG [1], the binding result is “binds”.

In the case of RACPWSCREL (also called G9 X1 (Leu 2) to Ala) [FMC63 Mimotope Mutant RACPWSCREL], the binding result with FMC63 IgG [5] was “binds”.

RLCPWACRQL [FMC63 Mimotope RLCPWACRQL]: in the assay with FMC63 IgG [1], the binding result is on record as “binds”.

With RLCPWSCREA (also called G9 X5 (Leu 10) to Ala) [FMC63 Mimotope Mutant RLCPWSCREA], the binding result in the assay with FMC63 IgG [5] is recorded as “binds”.

In the case of RLCPWSCRAL (also called G9 X4 (Glu 9) to Ala) [FMC63 Mimotope Mutant RLCPWSCRAL], the binding result with FMC63 IgG [5] was “binds”.

For RLCPWSCAEL (also called G9 X3 (Arg 8) to Ala) [FMC63 Mimotope Mutant RLCPWSCAEL], the binding result with FMC63 IgG [5] was “binds”.

Consider RLCPWACREL (also called G9 X2 (Ser 6) to Ala) [FMC63 Mimotope Mutant RLCPWACREL], for which the binding result in the assay with FMC63 IgG [5] is listed as “binds”.

Turning to RICPWNCKEL (also called F12 mimotope) [FMC63 Mimotope (F12) RICPWNCKEL], the Kd with FMC63 scFv [2] turned out to be 45.5 nM; in the assay with FMC63 scFv [4] it was 42 nM.

In the assay with FMC63 scFv [2], RICPWNCKELPSPPRIFGNR [FMC63 mimotope K-C2 RICPWNCKELPSPPRIFGNR] gave a Kd of 14.8 nM.

As to RLCPWSCMPR [FMC63 Mimotope RLCPWSCMPR], in the assay with FMC63 IgG [1], the binding result is reported as “binds”.

As for PLSRICPWNCKELYWLPQR [FMC63 mimotope K-A5 PLSRICPWNCKELYWLPQR], the Kd with FMC63 scFv [2] came out at 12.8 nM.

In turn, RICPWNCKELYWLPDE [FMC63 mimotope K-A11 RICPWNCKELYWLPDE] displayed a Kd with FMC63 scFv [2] of 16.8 nM.

As for PPPRICPWNCKELPLDWPW [FMC63 mimotope K-B5 PPPRICPWNCKELPLDWPW], the dissociation constant Kd with FMC63 scFv [2] is 23.8 nM.

In the case of RLCPWACQEQ [FMC63 Mimotope (C7) RLCPWACQEQ], the Kd in the assay with FMC63 IgG [3] is 252 nM; with FMC63 scFv [4] it was 219 nM.

Turning to AKRRERDYVGRICPWNCKELHPDTRHRIPV [FMC63 mimotope K-A10 AKRRERDYVGRICPWNCKELHPDTRHRIPV], the Kd with FMC63 scFv [2] came to 18.7 nM.

On to RLCPWHCAII [FMC63 Mimotope RLCPWHCAII], for which the binding result with FMC63 IgG [1] is “binds”.
